From patent US20220380471A1
Substitutions are numbered along the chain they refer to. One block for each binder: values may come before it.

Assays:
mouse B7H3-His (mouse) [1] = target: T1, mouse B7H3-His (mouse) (UniProt Q8VE98); assay: ELISA; row Mouse-2 (mB7H3); well 3 of 3
T1 sequence (looked up): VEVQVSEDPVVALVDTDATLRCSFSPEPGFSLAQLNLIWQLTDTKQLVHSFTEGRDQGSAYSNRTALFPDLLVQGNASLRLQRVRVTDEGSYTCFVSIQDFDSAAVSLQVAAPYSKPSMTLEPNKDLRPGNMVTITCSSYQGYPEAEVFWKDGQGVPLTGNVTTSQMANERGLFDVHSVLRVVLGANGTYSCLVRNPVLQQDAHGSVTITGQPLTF

mouse B7H3-His (mouse) [2] = target: T1, mouse B7H3-His (mouse); assay: ELISA; row Mouse-2 (mB7H3); well 2 of 3
mouse B7H3-His (mouse) [3] = target: T1, mouse B7H3-His (mouse); assay: ELISA; row Mouse-2 (mB7H3); well 1 of 3
mouse B7H3-His (mouse) [4] = target: T1, mouse B7H3-His (mouse); assay: ELISA; row Mouse-1 (msB7H3); well 1 of 3
rat B7H3-His (rat) [5] = target: T2, rat B7H3-His (rat) (UniProt Q7TPB4); assay: ELISA; row Rat; well 1 of 3
T2 sequence (looked up): T1 sequence (looked up) with A33R, S62A, N131D, V156L, L214M

rat B7H3-His (rat) [6] = target: T2, rat B7H3-His (rat); assay: ELISA; row Rat; well 3 of 3
mouse B7H3-His (mouse) [7] = target: T1, mouse B7H3-His (mouse); assay: phage ELISA, cross-species
rat B7H3-His (rat) [8] = target: T2, rat B7H3-His (rat); assay: phage ELISA, cross-species
rat B7H3-His (rat) [9] = target: T2, rat B7H3-His (rat); assay: ELISA; row Rat; well 2 of 3
rat B7H3-His (rat) [10] = target: T2, rat B7H3-His (rat); assay: ELISA, purified VHH
mouse B7H3-His (mouse) [11] = target: T1, mouse B7H3-His (mouse); assay: ELISA; row Mouse-1 (msB7H3); well 3 of 3
mouse B7H3-His (mouse) [12] = target: T1, mouse B7H3-His (mouse); assay: ELISA; row Mouse-1 (msB7H3); well 2 of 3

ELISA reading (name not given) (mouse B7H3-His (mouse) [1]): 0.0468 | ELISA reading (name not given) (mouse B7H3-His (mouse) [2]): 0.0498 | ELISA reading (name not given) (mouse B7H3-His (mouse) [3]): 0.079 | ELISA reading (name not given) (mouse B7H3-His (mouse) [4]): 0.0616 | ELISA reading (name not given) (rat B7H3-His (rat) [5]): 0.0683 | ELISA reading (name not given) (rat B7H3-His (rat) [6]): 0.0685 | ELISA signal (mouse B7H3-His (mouse) [7]): 0.366 | ELISA signal (rat B7H3-His (rat) [8]): 0.797 | ELISA reading (name not given) (rat B7H3-His (rat) [9]): 0.0688 | ELISA signal (rat B7H3-His (rat) [10]): 0.158 | ELISA reading (name not given) (mouse B7H3-His (mouse) [11]): 0.0488 | ELISA reading (name not given) (mouse B7H3-His (mouse) [12]): 0.0533
B1: RWC4 (VHH)
VHH: EVQLVESGGGSVQAGGSLRLSCVASEDSTSAMCMGWFRQAPGKEREGVACINPTGEVTWYGDSVKGRFTISRDTVKKIVYLQMNSLKPEDTAMYYCAARVTYGGDWSTDTDYEYWGQGTQVTVSS

ELISA reading (name not given) (mouse B7H3-His (mouse) [1]): 0.0764 | ELISA reading (name not given) (mouse B7H3-His (mouse) [2]): 0.0771 | ELISA reading (name not given) (mouse B7H3-His (mouse) [3]): 0.0742 | ELISA reading (name not given) (mouse B7H3-His (mouse) [4]): 0.0714 | ELISA signal (mouse B7H3-His (mouse) [7]): 1.71 | ELISA reading (name not given) (mouse B7H3-His (mouse) [11]): 0.0702 | ELISA reading (name not given) (mouse B7H3-His (mouse) [12]): 0.0683
B2: RWB12 (VHH)
VHH: QVQLVESGGGSVQVGGSLRLSCAASGFTYNSYSVGWFRQAPGKEREGVAAINSGGSSTYYAASVKGRFTISRDNAKNTVYLQMNSLKPEDTAMYYCAARSPSPLTFQTRTLREDSYNYWGQGTQVTVSS
